Here are results for 4 molecules from patent US9951128B2, “Caninized anti-NGF antibodies and methods thereof” (ZOETIS SERVICES LLC, priority 2012, dated 2018).

Read-outs that look alike come from different tables or passages of the source.

In assay [1] the target is canine NGF. Briefly: SPR (Biacore T100) binding of anti-NGF mAbs to canine NGF. The text has this: As used herein, the term “affinity” refers to the strength of the binding of a single antigen-combining site with an antigenic determinant. Affinity depends on the closeness of stereochemical fit between antibody or antigen binding protein combining sites and antigen determinants, on the size of the area of contact between them, on the distribution of charged and hydrophobic groups, etc. Antibody affinity can be measured by equilibrium analysis or by the Surface Plasmon Resonance—“SPR” method (for example BIACORE™. The SPR method relies on the phenomenon of surface plasmon resonance (SPR), which occurs when surface plasmon waves are excited at a metal/liquid interface. Light is directed at, and reflected from, the side of the surface not in contact with sample, and SPR causes a reduction in the reflected light intensity at a specific combination of angle and wavelength. Bimolecular binding events cause changes in the refractive index at the surface layer, which are detected as changes in the SPR signal.
The generation of anti-drug antibodies (ADAs) can be associated with loss of efficacy for any biotherapeutic protein including monoclonal antibodies. Comprehensive evaluation of the literature has shown that speciation of monoclonal antibodies can reduce the propensity for mAbs to be immunogenic although examples of immunogenic fully human mAbs and non-immunogenic chimeric mAbs can be found. To help mitigate risks associated with ADA formation for the mouse anti-NGF, RN911, monoclonal antibody provided herein, a caninization strategy was employed. This caninization strategy is based on identifying the most appropriate canine germline antibody sequence for CDR grafting (FIG. 3). Following extensive analysis of all available canine germline sequences for both the heavy and light chains, germline candidates were selected on their homology to RN911, and the CDRs from RN911 were used to replace native canine CDRs. The objective was to retain high affinity and cell-based activity using fully canine frameworks to minimize the potential of immunogenicity in vivo. Caninized mAbs were optimized for mammalian expression, expressed and characterized for their ability to bind NGF via SPR. […] Only mAbs that retained both reliable expression levels and the ability to bind NGF following caninization were advanced for further characterization.
(§1) Affinities of each caninized anti-NGF antibody to canine NGF were measured using SPR (Surface Plasmon Resonance). In addition, a functional in vitro assay was developed to measure inhibition constants for the mAbs ability to inhibit binding of NGF to TrkA. […] Some affinity was lost, however, upon caninization to mAb CAN-N2G9-VH, CAN-E3M. Due to this loss of affinity, the caninized mAb was affinity matured (see Example 5 for details) to regain potency. Included in FIGS. 12 and 13 are the results of the affinity matured products, SSM57 (SEQ ID NO. 27 “CAN-SSM57-VH”, SEQ ID NO. 26 “CAN-SSME3M-VL”), SSM58 (SEQ ID NO. 28 CAN-SSM58-VH, SEQ ID NO. 26 “CAN-SSME3M-VL”), and SSM66 (SEQ ID NO.29 CAN-SSM66, SEQ ID NO. 26 CAN-SSME3M-VL) on each SPR assay.
SPR on the supernatants were performed as an initial screen, good binders were purified, and pure mAb was again run via SPR to measure binding to canine NGF (TABLE 5). Constructs LTM109 and LTM135 were chosen to progress based on binding affinities.
Various KD's correspond to different sensors, surface density varies slightly.
Mutated antibodies were expressed in HEK293 cells and evaluated for binding affinities to canine NGF (results below; expression results in Tables 7-9).
(In SPR one partner is held on a chip, and binding of the other changes the refractive index at the surface.)

Assay [2] relates to NGF binding to receptor trkA. Briefly: Functional in vitro assay: inhibition of NGF binding to TrkA (pre-incubated mAb+NGF). The class given is biochemical. As for the experimental part: FIGS. 12A and B is a graphical representation of affinity data of caninized mAb (left). (Right) trkA inhibition data with pre-incubated mAb+NGF. (Bottom)
as §1

For assay [3], the system named is beagle (LPS-induced) synovitis pain model. Description: Dog LPS-induced synovitis pain model, lameness by visual analogue scale. The class given is in vivo. The conditions noted are these: synovitis induced 7 and 28 days post-dose. As for the experimental part:
PK/PD data were generated with RN911 in the target species in a synovitis efficacy study. In the synovitis pain model, transient inflammation of the synovial membrane in a single stifle is induced via intra-articular injection of bacterial lipopolysaccharide (LPS). Quantifiable lameness occurs within 2h of synovitis induction, peaks at 3-4h, is waning by 6h and is fully resolved after 24h. From an IACUC perspective, it is acceptable to induce synovitis on two separate occasions (i.e., once in each stifle), provided the lameness associated with the first synovitis induction has fully resolved. Therefore we designed a study in which synovitis was induced in the same beagle 3 days and 7 days after IV treatment (RN911 or PBS vehicle). After each synovitis induction, lameness was quantified using a visual analogue scale (VAS).
At this time, the free RN911 serum concentrations averaged 24400±3900 ng/mL (170±27 nM; FIG. 2).
Caninized mAb (CAN-SSME3M-VL, CAN-SSM57-HC) was tested in dog synovitis model at 5 mg/kg IV and 5 mg/kg SC. Results of study are shown in FIG. 14, inducing synovitis at 7 days and 28 days post-dose.

In assay [4] the test system is rat MIA model of osteoarthritis. Description: Rat MIA osteoarthritis model, weight bearing test. The class given is in vivo, Rat Ola Wistar. The conditions noted are these: dosed on study day 7 and study day 14. As for the experimental part:
Osteoarthritis (OA) is a degenerative joint disease characterized by joint pain and a progressive loss of articular cartilage. Intra-articular injection of MIA induces loss of articular cartilage with progression of subchondral bone lesions that mimic those of OA. This model offers a rapid and minimally invasive method to reproduce OA-like lesions in a rodent species.
Pain was assessed using weight bearing test for sustained pain and joint compression (Randall Selitto) test for mechanical hyperalgesia. See FIG. 17 for a schematic of the rat MIA procedure.
This training regime was required as it was anticipated that the level of variability within the experiment is relatively high. […]
Weight bearing deficits were measured in all rats on study day −1, this measurement served as a baseline. Weight bearing was then recorded on study days 9, 16, 21 and 28. […]
The weight bearing of each leg was measured separately by weight bearing apparatus (IITC, Series 8, Model 600®). This test quantifies the spontaneous postural changes reflecting spontaneous pain by independently measuring, on two separate sensors, the weight that the animal applies on each hind paw.
Results were calculated and represented as the percentage of weight that the animal leaned on the injected right leg or intact left leg from the total amount of leaned weight on the two hind legs. […]

Setting [5] is: canine NGF, 1:1 Binding fit, Table 9.

Chain of canine NGF (as listed by the source): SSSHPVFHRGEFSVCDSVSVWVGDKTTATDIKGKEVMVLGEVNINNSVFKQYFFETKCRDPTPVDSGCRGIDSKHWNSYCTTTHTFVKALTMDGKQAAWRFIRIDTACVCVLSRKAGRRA
Chain of NGF binding to receptor trkA (as listed by the source): as above

B1: CanE3M 65112: caninized RN911 mAb: CAN-N2G9-VH (SEQ ID NO. 17), CAN-E3M-VL (SEQ ID NO. 16), CAN-65E-HC, CAN-KAPPA-LC (antibody, V domains shown)
VH: EVQLVESGGDLARPGGSLKLSCVVSGFSLIGYDINWVRQAPGKGLQWVTMIWGDGTTDYNSALKSRFTVSRDNAMNTVYLQMNSLRVEDTAVYYCARGGYYYGTSYYFDYWGQGTLVTVSS
VL: DIVMTQTPLSLSVSPGETASISCRASQDISNHLNWFRQKPGQSPQRLIYYISRFHSGVPDRFSGSGSGTDFTLRISRVEADDTGVYYCQQSKTLPYTFGAGTKLEIK
modifications: canine constant regions without entries; canine
On to B1, for which the Kd in assay [1] (Dog NGF, Biacore T100, purified mAb, run 11/8 (different sensors), read-out: KD (M) 11/8) worked out at 3.35e-09 M; in assay [1] (Dog NGF, Biacore T100, purified mAb, run 11/22 (different sensors), read-out: KD (M) 11/22) it was 1.46e-09 M; in assay [1] (Dog NGF, Biacore T100, purified mAb, run 11/24 (different sensors), read-out: KD (M) 11/24) it was 2.35e-09 M; in assay [1] (Dog NGF, Biacore T100, purified mAb, run 11/29 (different sensors), read-out: KD (M) 11/29), 3.51e-09 M; in assay [1] (canine NGF, 1:1 Binding fit, Table 9, read-out: KD), 4.7e-09 M. In addition, the “Binding of mAbs to NGF (FIGS. 12 and 13)” value in assay [1] (SPR) is on record as “high affinity binding”. Also, the ka in assay [1] (setting [5]) turned out to be 17200 M⁻¹ s⁻¹. Moreover, the kd in assay [1] (setting [5]) stood at 8.11e-05 s⁻¹. Besides, the “Binding to canine NGF after caninization / framework substitution” value in assay [1] (expressed in HEK 293) was “retained NGF binding”. Moreover, in assay [2], the “Inhibition by mAbs of NGF binding to receptor trkA” value was “potent inhibition”.

B2: SSM58: affinity matured caninized mAb: CAN-SSM58-VH (SEQ ID NO. 28), CAN-SSME3M-VL (SEQ ID NO. 26) (antibody, V domains shown)
VH: EVQLVESGGDLARPGGSLKLSCVVSGFSLIEYDINWVRQAPGKGLQWVTMIWGDGTTDYNSALKSRFTVSRDNAMNTVYLQMNSLRVEDTAVYYCARGGYWYATSYYFDYWGQGTLVTVSS
VL: DIVMTQTPLSLSVSPGETASISCRASQSISNNLNWFRQKPGQSPQRLIYYISSFHSGVPDRFSGSGSGTDFTLRISRVEADDTGVYYCQQSHTLPYTFGAGTKLEIK
modifications: canine
As for B2, in assay [1], the “Binding affinities to canine NGF among SSM mutated antibodies” value (from here on “Binding affinities”) is given as “highest affinities”.

B3: SSM57: affinity matured caninized mAb: CAN-SSM57-VH (SEQ ID NO. 27), CAN-SSME3M-VL (SEQ ID NO. 26) (antibody, V domains shown)
VH: EVQLVESGGDLARPGGSLKLSCVVSGFSLIQYDINWVRQAPGKGLQWVTMIWGDGTTDYNSALKSRFTVSRDNAMNTVYLQMNSLRVEDTAVYYCARGGYWYATSYYFDYWGQGTLVTVSS
VL: DIVMTQTPLSLSVSPGETASISCRASQSISNNLNWFRQKPGQSPQRLIYYISSFHSGVPDRFSGSGSGTDFTLRISRVEADDTGVYYCQQSHTLPYTFGAGTKLEIK
modifications: canine
B3: the “Binding affinities” value in assay [1] is listed as “highest affinities”. Besides, the “Efficacy in dog synovitis model” value in assay [3] (5 mg/kg IV) and in assay [3] (5 mg/kg SC) was “showed efficacy” each time. For the same molecule, the “Analgesic effect in the rat MIA model of osteoarthritis” value in assay [4] is reported as “demonstrated”.

B4: SSM66: affinity matured caninized mAb: CAN-SSM66-VH (SEQ ID NO. 29), CAN-SSME3M-VL (SEQ ID NO. 26) (antibody, V domains shown)
VH: EVQLVESGGDLARPGGSLKLSCVVSGFSLIEYDINWVRQAPGKGLQWVTMIWGTGTTDYNSALKSRFTVSRDNAMNTVYLQMNSLRVEDTAVYYCARGGYWYATSYYFDYWGQGTLVTVSS
VL: DIVMTQTPLSLSVSPGETASISCRASQSISNNLNWFRQKPGQSPQRLIYYISSFHSGVPDRFSGSGSGTDFTLRISRVEADDTGVYYCQQSHTLPYTFGAGTKLEIK
modifications: canine
As to B4, the “Binding affinities” value in assay [1] is reported as “highest affinities”.
